In the supplement of paper PMC9170038:

Tested on: K4 kissing-loop RNA reporter
Test: apparent KD of K4 kissing-loop reporter; higher = weaker reporter binding
Conditions: Eterna round: R107
Protocol: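 RNA-MaP round R107: designed RNA switches with theophylline, tryptophan, arginine or FMN aptamers are transcribed on-chip within common flanks. They are titrated with a labelled K4 kissing-loop RNA reporter in RNA-MaP buffer (100 mM Tris pH 7.5, 80 mM KCl, 4 mM MgCl2), without ligand or with the indicated ligand. Median apparent KD per design.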

[1] = input ligand: theophylline 20 uM
[2] = input ligand: tryptophan 2.4 mM
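Note: bound reporter read as fluorescence of individual clusters on recovered sequencing chips by microscopy, with normalized cluster intensities fitted with a binding model.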

| Sequence | apparent KD of K4 kissing-loop reporter (input ligand: FMN 200 uM) [nM] | apparent KD of K4 kissing-loop reporter (input ligand: arginine 13.2 mM) [nM] | apparent KD of K4 kissing-loop reporter (input ligand: none) [nM] | apparent KD of K4 kissing-loop reporter [1] [nM] | apparent KD of K4 kissing-loop reporter [2] [nM] |
| --- | --- | --- | --- | --- | --- |
| AGGAUCCGUCGACAAAAGUCGACAUAAGCCAAGGAUAUGACGAAAGUCAGAAGGUGGUCAUAAGACCAGUGAUGUUGGUGGAUCC [FmnA 13 #SwitchBubble #K4Late] | 909 | 279 | 526 | 309 | 457 |
| AGGUACAAAAGUACCGCUAGAUCCACGGAAGGAGCGCGCGAAAGCGCAGGUAGGUCGCCGGGCAGUGAUGUUGCCGGAUCUAGCA [Omei KL Arginine A SS A v7] | 134 | 138 | 126 | 165 | 144 |
| AGGUUUUGAUUAGGAUAUGCACUGAGGAGGAGAAUAUAGUGAUGUUAUAUAAGAGGAAUUAGUAGAGUAGAAGGGAUUGAGGUUU [SSFMNB.T] | 248 | 167 | 131 | 124 | 196 |
| AGUAAUGAGUGAUGUUCAAGUAGUAAGGAUACCAGUAAUUCAAAAUGCCCUUGGCAGCUUAGCGCUACCAAUAGAUGGGUAGUGG [Theophilline A V3 (+6G)] | 243 | 250 | 286 | 297 | 160 |
| AGUACAAUGGCGGCCGCCACUCAAUGGCAGAUCAAAGAUCUGCAUCACUCAGUGAUGUUGAGUGAGAGGACCGGGCCUUUGUACA [Omei KL Tryp B SS B v7] | 564 | 517 | 563 | 505 | 157 |
| AGUACAAUUGCGGCCGCCACUCAACGCAGAUCAAAGAUCUGCAUUCACUCAGUGAUGUUGAGUGAGAGGACCGGGCAUUUGUACA [Omei KL Tryp B SS B v2] | 676 | 481 | 548 | 512 | 164 |
| AGUGCACUGUCAGGAUAUAUACAGUGAUGUUGUGUAUGUCGGCAAGUCAAAGACUUGCCAUUCUGUGUAGAAGGGACUGUGUACA [#04 K4 FMN B Exclusion] | 544 | 203 | 222 | 202 | 223 |
| AGUGUUAGGUUAGAUACCAGCCGUCUGUGGAUAAUCCACAGACCGCCAGUGAUGUUGGCAGGCCCUUGGCAGCUAACAGGACAGA [Riedingeus] | 239 | 215 | 220 | 153 | 208 |
| AGUUCUUGCCGAAGGAGCGAGGCAGAGUGAUGUUCUGCAAAGAGGUCGAAAGACCUCCUGCCUCAGGUAGGUCGCGGCAUGAACA [Omei KL Arginine B Exc A v5] | 814 | 942 | 652 | 509 | 1260 |
| AUACAGCGAAGCGCUAGUGAUGUUAGCGAAGGAGCGACUCAGGAGUCAGGUAGGUCGCGCUAAACAGGUUACGAGAGUAACCAGU [Arg A Ex t1] | 142 | 120 | 140 | 137 | 113 |
| AUAUCUGAUAGCAGUGAUGUUGCUUCAGAUACCAGACGAGAUCAUGUCCCUUGGCAGCUGACACGGCACGUGCUAGGUUAGAUGA [Theo A Ex t2] | 101 | 92.6 | 101 | 103 | 101 |
| AUAUUACUAUACGAUACCAGCCCUAACACUAGUGACGCGGUAAUAGUGAUGUUGUAACCCGGCCCUUGGCAGCGUAAUCAUGGAA [theeternabot_sameState_KL_Theo_B_7] | 529 | 395 | 519 | 524 | 475 |
| AUCAGUGUCUCACGCUACGACAUAUACGAUACCAGUCACCCUGAUGACCCUUGGCAGCGUCAACGAGUGAUGUUCGGGUUCUAGA [theeternabot_sameState_KL_Theo_A_1] | 345 | 241 | 404 | 389 | 309 |
| AUGACUCAAUAGUGAGUGAUGUUCACUGGACGAGGACCGGUACGGCCGCCACUCGAGAGUGGUGGACACUGUGUCACUGAGUCAU [Tryp A Ex t1] | 180 | 166 | 154 | 194 | 496 |
| AUGCGCGCGGCGGCCGCCACUCGCAUGAGAGUGAUGUUCUCGCCGUGCCCGCAAGGGUGCGGUGUGAGGACCGGGCCGGGCUGCG [#2 Same State - Tryptophan B Attempt #19 (HarryS)] | 562 | 143 | 194 | 154 | 302 |
| AUGCGCGUGCGAUGGAAAUCGCACGCGCAUCGAGGACCGGUACGGCCGCCACUCGCUCGCGCCGAGUGAUGUUCGGCCGGCGAAC [#2 SameState - Tryptophan_A Attempt #3 (HarryS)] | 180 | 162 | 283 | 329 | 599 |
| AUGUUGAGCGGAAGGAGCGGCUGAACCAGUGAUGUUGGUUAAUCCAAGUGAUGUUGGAAAAGCCAGGUAGGUCGCCGCUUUAUGU [Same State Arg B GF 2] | 821 | 534 | 902 | 896 | 722 |
| AUUAUAAAGGCGGCCGCCACUAGUGAUGUUAGUGACUAUAGUAUUAUCUAUAGAAUAAAAUAAAAUAGGACCGGGCCAAAAUAUU [AstrosExTryB#2] | 535 | 411 | 525 | 493 | 464 |
| AUUAUCAAUUUAUUAUAUAACUUUUCAGAAGGAGCGUGGAAGUACACAGGUAGGUCGCUGAAUAUAGGACUAGUGAUGUUAGUUA [JR_Nu_SSArginiA_Sub024] | 236 | 221 | 266 | 298 | 248 |
| AUUGCGGCCGUUCUAUCACCAGGCGGAGAUACCAGAUGCCAGCAGAUCCCUUGGCAGCUCUGCACGAGAUCCAGUGAUGUUGGGU [theeternabot_exclusion_KL_Theo_A_9] | 319 | 239 | 320 | 288 | 276 |
| AUUUAAUGUAUAGAUUAUAUACAUUAUUCAGAGGAUAUGCAUUGAAGCAGAAGGCUGGGUGUAGUGAUGUUGCAGUUUUAAUUUA [whbob_SS_FMNA__2th173] | 150 | 254 | 152 | 224 | 122 |
